Measured values taken from patent EP3801029B1 (Morehouse School of Medicine, dated 2024).

Tests used:
Mortalin [1] = molecular target: T1, Mortalin (UniProt P38646 47-679); experiment: peptide pull-down from Jurkat cell lysate, Western blot
T1 construct: Endogenous protein from Jurkat cells (a human cell line); also called Glucose-regulated protein 75; GRP75

Mortalin [2] = molecular target: T1, Mortalin; experiment: peptide pull-down from Jurkat cell lysate, Western blot with anti-mortalin antibody
E. coli DnaK protein = molecular target: T2, E. coli DnaK protein (Escherichia coli, UniProt P0A6Y8 2-638); experiment: ANTI-FLAG M2 pull-down from E. coli lysate, Western blot with anti-DnaK antibody
T2 construct: Endogenous protein from E. coli lysate; also called heat shock protein 70; Hsp70
T2 sequence (P0A6Y8 2-638 limits assumed): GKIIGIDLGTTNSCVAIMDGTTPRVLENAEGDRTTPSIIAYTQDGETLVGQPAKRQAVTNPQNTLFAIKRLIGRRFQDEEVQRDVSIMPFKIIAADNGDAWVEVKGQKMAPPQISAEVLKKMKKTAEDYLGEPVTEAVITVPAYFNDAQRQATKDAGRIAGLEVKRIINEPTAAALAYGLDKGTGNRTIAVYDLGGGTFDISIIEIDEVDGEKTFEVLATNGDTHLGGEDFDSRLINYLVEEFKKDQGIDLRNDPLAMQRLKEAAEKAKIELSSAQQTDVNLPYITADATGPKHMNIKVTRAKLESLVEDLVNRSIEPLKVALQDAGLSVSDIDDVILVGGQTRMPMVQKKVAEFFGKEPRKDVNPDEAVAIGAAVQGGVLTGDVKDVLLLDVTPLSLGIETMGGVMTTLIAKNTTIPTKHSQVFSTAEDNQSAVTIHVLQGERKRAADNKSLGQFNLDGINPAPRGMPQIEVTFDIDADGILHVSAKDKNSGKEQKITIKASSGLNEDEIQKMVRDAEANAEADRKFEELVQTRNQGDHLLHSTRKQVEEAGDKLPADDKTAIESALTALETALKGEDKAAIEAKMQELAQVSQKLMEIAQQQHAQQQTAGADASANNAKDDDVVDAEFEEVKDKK

T1 sequence (P38646 47-679 limits assumed): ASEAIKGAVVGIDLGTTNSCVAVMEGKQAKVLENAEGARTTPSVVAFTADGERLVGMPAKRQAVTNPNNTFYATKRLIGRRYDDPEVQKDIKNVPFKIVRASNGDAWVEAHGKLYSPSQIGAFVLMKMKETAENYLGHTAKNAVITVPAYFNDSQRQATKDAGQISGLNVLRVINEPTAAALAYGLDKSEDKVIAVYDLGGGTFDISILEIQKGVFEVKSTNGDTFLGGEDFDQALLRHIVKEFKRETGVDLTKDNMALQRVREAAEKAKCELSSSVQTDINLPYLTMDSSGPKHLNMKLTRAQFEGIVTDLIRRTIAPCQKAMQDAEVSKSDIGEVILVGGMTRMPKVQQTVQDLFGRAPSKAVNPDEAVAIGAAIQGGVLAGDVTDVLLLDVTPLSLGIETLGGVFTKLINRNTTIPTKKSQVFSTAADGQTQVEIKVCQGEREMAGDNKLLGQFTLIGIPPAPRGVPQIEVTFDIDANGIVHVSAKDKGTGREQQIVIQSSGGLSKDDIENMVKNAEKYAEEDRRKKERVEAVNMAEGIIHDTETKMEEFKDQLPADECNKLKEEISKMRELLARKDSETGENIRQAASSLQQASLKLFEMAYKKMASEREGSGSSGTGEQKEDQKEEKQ

B1: synthetic HIV-1 Nef SMRwt peptide (VGFPVAAVGFPVDYKDDDDK) (peptide)
peptide: VGFPVAAVGFPVDYKDDDDK
notes: also called SMR peptide; antagonist
- binding result (Mortalin [1]): binds

B2: synthetic HIV-1 Nef SMRmut peptide (AGFPVAAAGFPVDYKDDDDK) (peptide)
peptide: AGFPVAAAGFPVDYKDDDDK
notes: also called negative control peptide; mutant SMR peptide
- binding result (Mortalin [2]): no binding
- binding result (E. coli DnaK protein): no binding (tested: 1 µg peptide with 1 mg E. coli lysate)
